Experimental data from the supplement of paper PMC10065799, “High-throughput profiling of sequence recognition by tyrosine kinases and SH2 domains using bacterial peptide display” (eLife, 2023).

test system: AncSZ; test: phosphorylation enrichment, bacterial display (enrichment ratio); higher = better substrate or ligand; peptides without Tyr show the background
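Note: 11-residue human phosphosite peptides and single-mutation variants displayed on the E. coli surface, counted by deep sequencing, each peptide's frequency after selection divided by its frequency in the unselected input library; frequency after pTyr selection over input frequency; kinase dosed for 20-30% of maximal phosphorylation in three min.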

| Sequence | phosphorylation enrichment |
| --- | --- |
| TNYPLYLRSLE [MTM1_Y71_R69P] | 1.18 |
| NDKLRYEVSSP [CDH13_Y66] | 1.14 |
| VNNAVYGIDAM [EIF3J_Y143] | 0.86 |
| DPADRYLTEQF [CDKL5_Y286_C291Y_YF] | 1.11 |
| PLDGEYFTLQI [TP53_Y327] | 4.14 |
| SVVVPYEPPEG [TP53_Y220_V225G] | 1.02 |
| QSSALYEDRFL [ASS1_Y83_YF] | 1.19 |
| LDPMVYMNDKS [PTK2B_Y834] | 1.09 |
| CEHFSYFGMKA [SLC15A2_Y60_R57H_YF] | 0.879 |
| VFLGAYDRFLP [SLC22A5_Y486_YF] | 1.19 |
| SVETPYGSVTF [NDRG2_Y47] | 0.82 |
| ENAGFYFRVSA | 1.45 |
| ENRLDYGSAWA [AR_Y395_P392R] | 0.773 |
| HLITAYRAHGF [PDHA1_Y118] | 0.648 |
| FNNPAYYVLEG [INPPL1_Y986] | 1.2 |
| QRDSSYYWEIE [RAF1_Y340] | 1.3 |
| NYADPYRQLQY [CTNND2_Y503] | 0.776 |
| PSDSGYSFETI [MAP1B_Y1921_YF] | 1.05 |
| TLLPDYEDEEE [ZNF830_Y159_S154T] | 1.64 |
| FRIGPYQPNVP [MATR3_Y784_YF] | 0.773 |
| GGTTLYPGIAD [ACTC1_Y308_M307L] | 0.587 |
| EERNPYFSSAR [MCCC2_Y520_G517R_YF] | 0.769 |
| KPYRVYCDMNT [FGB_Y269] | 1.04 |
| FIAVGYVDDTQ [HLA-A_Y51] | 0.822 |
| FGLQAYTKVKT [ALDH2_Y502_E504K_YF] | 1.12 |
| ELETLYKKAVK [CC2D2A_Y381] | 0.702 |
| MRALTYCDLHK [KCNH2_Y827_V822M] | 0.853 |
| NHQYDYTFHWT [CSNK1A1_Y294_D297H] | 2.13 |
| LAETSYVKVLE [MAGEA1_Y276] | 0.817 |

target: EPHB2 (UniProt P29323); test: as above
Sequence (P29323 whole entry, looked up): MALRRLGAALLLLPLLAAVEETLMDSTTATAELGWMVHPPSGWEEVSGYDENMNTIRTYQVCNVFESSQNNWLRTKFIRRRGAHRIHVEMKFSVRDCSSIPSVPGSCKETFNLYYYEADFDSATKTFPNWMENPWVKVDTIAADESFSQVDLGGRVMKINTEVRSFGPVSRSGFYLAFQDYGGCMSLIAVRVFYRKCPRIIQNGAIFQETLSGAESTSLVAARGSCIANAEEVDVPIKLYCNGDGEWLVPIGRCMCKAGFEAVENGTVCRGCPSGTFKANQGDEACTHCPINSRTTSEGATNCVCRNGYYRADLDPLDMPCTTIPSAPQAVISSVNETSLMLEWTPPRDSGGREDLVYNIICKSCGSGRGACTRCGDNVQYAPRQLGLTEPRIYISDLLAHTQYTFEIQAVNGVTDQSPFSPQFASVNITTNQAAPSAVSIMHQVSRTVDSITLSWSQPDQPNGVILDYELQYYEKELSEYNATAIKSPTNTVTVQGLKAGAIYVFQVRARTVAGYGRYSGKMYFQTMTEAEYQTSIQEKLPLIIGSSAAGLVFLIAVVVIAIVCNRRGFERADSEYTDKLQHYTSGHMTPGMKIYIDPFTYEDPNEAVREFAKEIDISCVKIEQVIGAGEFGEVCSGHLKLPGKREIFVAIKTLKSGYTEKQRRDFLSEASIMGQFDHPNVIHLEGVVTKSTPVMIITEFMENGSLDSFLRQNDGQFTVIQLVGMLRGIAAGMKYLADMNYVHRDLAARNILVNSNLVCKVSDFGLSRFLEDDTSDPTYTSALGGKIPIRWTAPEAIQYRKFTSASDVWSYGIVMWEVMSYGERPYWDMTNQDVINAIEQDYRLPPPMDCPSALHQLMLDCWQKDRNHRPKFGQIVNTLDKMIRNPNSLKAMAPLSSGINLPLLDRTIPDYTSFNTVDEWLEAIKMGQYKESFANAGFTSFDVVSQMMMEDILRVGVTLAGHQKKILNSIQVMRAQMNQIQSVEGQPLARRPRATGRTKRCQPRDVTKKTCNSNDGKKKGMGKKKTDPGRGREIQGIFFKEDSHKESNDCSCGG

| Sequence | phosphorylation enrichment |
| --- | --- |
| TNYPLYLRSLE [MTM1_Y71_R69P] | 0.727 |
| NDKLRYEVSSP [CDH13_Y66] | 0.502 |
| VNNAVYGIDAM [EIF3J_Y143] | 0.437 |
| DPADRYLTEQF [CDKL5_Y286_C291Y_YF] | 0.747 |
| PLDGEYFTLQI [TP53_Y327] | 1.36 |
| SVVVPYEPPEG [TP53_Y220_V225G] | 0.492 |
| QSSALYEDRFL [ASS1_Y83_YF] | 1.86 |
| LDPMVYMNDKS [PTK2B_Y834] | 0.595 |
| CEHFSYFGMKA [SLC15A2_Y60_R57H_YF] | 0.516 |
| VFLGAYDRFLP [SLC22A5_Y486_YF] | 1.58 |
| SVETPYGSVTF [NDRG2_Y47] | 0.438 |
| ENAGFYFRVSA | 0.704 |
| ENRLDYGSAWA [AR_Y395_P392R] | 0.453 |
| HLITAYRAHGF [PDHA1_Y118] | 0.389 |
| FNNPAYYVLEG [INPPL1_Y986] | 0.704 |
| QRDSSYYWEIE [RAF1_Y340] | 1.14 |
| NYADPYRQLQY [CTNND2_Y503] | 10.8 |
| PSDSGYSFETI [MAP1B_Y1921_YF] | 1.1 |
| TLLPDYEDEEE [ZNF830_Y159_S154T] | 0.962 |
| FRIGPYQPNVP [MATR3_Y784_YF] | 0.514 |
| GGTTLYPGIAD [ACTC1_Y308_M307L] | 0.531 |
| EERNPYFSSAR [MCCC2_Y520_G517R_YF] | 0.392 |
| KPYRVYCDMNT [FGB_Y269] | 0.783 |
| FIAVGYVDDTQ [HLA-A_Y51] | 0.499 |
| FGLQAYTKVKT [ALDH2_Y502_E504K_YF] | 0.644 |
| ELETLYKKAVK [CC2D2A_Y381] | 0.47 |
| MRALTYCDLHK [KCNH2_Y827_V822M] | 0.523 |
| NHQYDYTFHWT [CSNK1A1_Y294_D297H] | 3.07 |
| LAETSYVKVLE [MAGEA1_Y276] | 0.471 |

target: FGFR3 (UniProt P22607); test: as above
Sequence (P22607 whole entry, looked up): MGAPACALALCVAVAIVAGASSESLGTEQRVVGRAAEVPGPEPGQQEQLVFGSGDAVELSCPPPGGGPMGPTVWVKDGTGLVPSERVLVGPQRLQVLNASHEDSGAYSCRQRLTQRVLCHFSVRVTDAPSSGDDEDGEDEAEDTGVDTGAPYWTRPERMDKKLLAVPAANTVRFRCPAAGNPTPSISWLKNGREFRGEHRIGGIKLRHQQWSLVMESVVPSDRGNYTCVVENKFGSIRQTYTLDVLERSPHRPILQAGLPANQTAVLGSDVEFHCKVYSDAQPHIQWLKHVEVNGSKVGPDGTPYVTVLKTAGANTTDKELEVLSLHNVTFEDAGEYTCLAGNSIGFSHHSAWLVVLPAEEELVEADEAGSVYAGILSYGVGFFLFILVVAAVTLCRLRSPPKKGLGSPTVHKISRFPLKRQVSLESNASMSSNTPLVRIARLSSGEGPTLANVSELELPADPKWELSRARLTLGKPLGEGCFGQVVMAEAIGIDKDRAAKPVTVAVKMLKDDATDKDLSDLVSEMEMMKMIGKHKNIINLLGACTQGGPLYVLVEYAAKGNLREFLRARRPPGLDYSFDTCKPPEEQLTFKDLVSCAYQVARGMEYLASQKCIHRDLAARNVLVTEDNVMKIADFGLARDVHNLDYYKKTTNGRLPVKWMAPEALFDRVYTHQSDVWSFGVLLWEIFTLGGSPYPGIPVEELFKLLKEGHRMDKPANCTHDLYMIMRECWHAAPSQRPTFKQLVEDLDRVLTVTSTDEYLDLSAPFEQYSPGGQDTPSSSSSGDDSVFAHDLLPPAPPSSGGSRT

| Sequence | phosphorylation enrichment |
| --- | --- |
| TNYPLYLRSLE [MTM1_Y71_R69P] | 0.987 |
| NDKLRYEVSSP [CDH13_Y66] | 0.615 |
| VNNAVYGIDAM [EIF3J_Y143] | 0.502 |
| DPADRYLTEQF [CDKL5_Y286_C291Y_YF] | 0.645 |
| PLDGEYFTLQI [TP53_Y327] | 7.34 |
| SVVVPYEPPEG [TP53_Y220_V225G] | 0.714 |
| QSSALYEDRFL [ASS1_Y83_YF] | 1.01 |
| LDPMVYMNDKS [PTK2B_Y834] | 0.586 |
| CEHFSYFGMKA [SLC15A2_Y60_R57H_YF] | 0.902 |
| VFLGAYDRFLP [SLC22A5_Y486_YF] | 0.656 |
| SVETPYGSVTF [NDRG2_Y47] | 0.53 |
| ENAGFYFRVSA | 1.1 |
| ENRLDYGSAWA [AR_Y395_P392R] | 0.503 |
| HLITAYRAHGF [PDHA1_Y118] | 0.609 |
| FNNPAYYVLEG [INPPL1_Y986] | 9.49 |
| QRDSSYYWEIE [RAF1_Y340] | 3.03 |
| NYADPYRQLQY [CTNND2_Y503] | 1.99 |
| PSDSGYSFETI [MAP1B_Y1921_YF] | 1.05 |
| TLLPDYEDEEE [ZNF830_Y159_S154T] | 0.938 |
| FRIGPYQPNVP [MATR3_Y784_YF] | 0.736 |
| GGTTLYPGIAD [ACTC1_Y308_M307L] | 0.548 |
| EERNPYFSSAR [MCCC2_Y520_G517R_YF] | 0.404 |
| KPYRVYCDMNT [FGB_Y269] | 0.789 |
| FIAVGYVDDTQ [HLA-A_Y51] | 0.553 |
| FGLQAYTKVKT [ALDH2_Y502_E504K_YF] | 0.877 |
| ELETLYKKAVK [CC2D2A_Y381] | 0.731 |
| MRALTYCDLHK [KCNH2_Y827_V822M] | 0.536 |
| NHQYDYTFHWT [CSNK1A1_Y294_D297H] | 3.88 |
| LAETSYVKVLE [MAGEA1_Y276] | 0.532 |

target: Fyn (UniProt P06241); test: as above
Sequence (P06241 whole entry, looked up): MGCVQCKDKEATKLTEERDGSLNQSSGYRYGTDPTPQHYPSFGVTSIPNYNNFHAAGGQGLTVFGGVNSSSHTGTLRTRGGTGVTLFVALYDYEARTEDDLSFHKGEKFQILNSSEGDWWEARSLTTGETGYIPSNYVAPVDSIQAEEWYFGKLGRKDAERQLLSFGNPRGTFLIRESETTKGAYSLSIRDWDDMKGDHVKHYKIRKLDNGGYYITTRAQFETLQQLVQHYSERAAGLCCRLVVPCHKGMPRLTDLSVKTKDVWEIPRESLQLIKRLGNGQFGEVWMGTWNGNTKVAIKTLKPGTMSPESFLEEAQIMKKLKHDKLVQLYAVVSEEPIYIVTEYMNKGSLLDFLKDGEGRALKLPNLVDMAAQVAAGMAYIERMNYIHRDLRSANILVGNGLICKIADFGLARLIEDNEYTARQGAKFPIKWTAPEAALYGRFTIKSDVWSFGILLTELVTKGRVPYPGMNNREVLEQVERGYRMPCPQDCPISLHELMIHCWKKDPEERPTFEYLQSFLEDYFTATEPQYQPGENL

| Sequence | phosphorylation enrichment |
| --- | --- |
| TNYPLYLRSLE [MTM1_Y71_R69P] | 0.603 |
| NDKLRYEVSSP [CDH13_Y66] | 0.421 |
| VNNAVYGIDAM [EIF3J_Y143] | 1.09 |
| DPADRYLTEQF [CDKL5_Y286_C291Y_YF] | 0.527 |
| PLDGEYFTLQI [TP53_Y327] | 4.48 |
| SVVVPYEPPEG [TP53_Y220_V225G] | 0.525 |
| QSSALYEDRFL [ASS1_Y83_YF] | 1.48 |
| LDPMVYMNDKS [PTK2B_Y834] | 0.55 |
| CEHFSYFGMKA [SLC15A2_Y60_R57H_YF] | 0.379 |
| VFLGAYDRFLP [SLC22A5_Y486_YF] | 2.96 |
| SVETPYGSVTF [NDRG2_Y47] | 5.93 |
| ENAGFYFRVSA | 0.45 |
| ENRLDYGSAWA [AR_Y395_P392R] | 0.498 |
| HLITAYRAHGF [PDHA1_Y118] | 0.551 |
| FNNPAYYVLEG [INPPL1_Y986] | 1.75 |
| QRDSSYYWEIE [RAF1_Y340] | 2.12 |
| NYADPYRQLQY [CTNND2_Y503] | 0.43 |
| PSDSGYSFETI [MAP1B_Y1921_YF] | 0.703 |
| TLLPDYEDEEE [ZNF830_Y159_S154T] | 0.605 |
| FRIGPYQPNVP [MATR3_Y784_YF] | 0.45 |
| GGTTLYPGIAD [ACTC1_Y308_M307L] | 0.458 |
| EERNPYFSSAR [MCCC2_Y520_G517R_YF] | 0.475 |
| KPYRVYCDMNT [FGB_Y269] | 0.6 |
| FIAVGYVDDTQ [HLA-A_Y51] | 0.406 |
| FGLQAYTKVKT [ALDH2_Y502_E504K_YF] | 0.546 |
| ELETLYKKAVK [CC2D2A_Y381] | 0.366 |
| MRALTYCDLHK [KCNH2_Y827_V822M] | 0.407 |
| NHQYDYTFHWT [CSNK1A1_Y294_D297H] | 0.602 |
| LAETSYVKVLE [MAGEA1_Y276] | 0.479 |
